Measured values published in the supplement of paper PMC10065799, “High-throughput profiling of sequence recognition by tyrosine kinases and SH2 domains using bacterial peptide display” (eLife, 2023).

Legend:
[1] = molecular target: Fyn (UniProt P06241); test: phosphorylation enrichment, bacterial display (enrichment ratio); higher = better substrate or ligand; peptides without Tyr show the background
[2] = molecular target: EPHB1 (UniProt P54762); test: as above
[3] = molecular target: FGFR1 (UniProt P11362); test: as above
FGFR1, sequence (P11362 whole entry, looked up): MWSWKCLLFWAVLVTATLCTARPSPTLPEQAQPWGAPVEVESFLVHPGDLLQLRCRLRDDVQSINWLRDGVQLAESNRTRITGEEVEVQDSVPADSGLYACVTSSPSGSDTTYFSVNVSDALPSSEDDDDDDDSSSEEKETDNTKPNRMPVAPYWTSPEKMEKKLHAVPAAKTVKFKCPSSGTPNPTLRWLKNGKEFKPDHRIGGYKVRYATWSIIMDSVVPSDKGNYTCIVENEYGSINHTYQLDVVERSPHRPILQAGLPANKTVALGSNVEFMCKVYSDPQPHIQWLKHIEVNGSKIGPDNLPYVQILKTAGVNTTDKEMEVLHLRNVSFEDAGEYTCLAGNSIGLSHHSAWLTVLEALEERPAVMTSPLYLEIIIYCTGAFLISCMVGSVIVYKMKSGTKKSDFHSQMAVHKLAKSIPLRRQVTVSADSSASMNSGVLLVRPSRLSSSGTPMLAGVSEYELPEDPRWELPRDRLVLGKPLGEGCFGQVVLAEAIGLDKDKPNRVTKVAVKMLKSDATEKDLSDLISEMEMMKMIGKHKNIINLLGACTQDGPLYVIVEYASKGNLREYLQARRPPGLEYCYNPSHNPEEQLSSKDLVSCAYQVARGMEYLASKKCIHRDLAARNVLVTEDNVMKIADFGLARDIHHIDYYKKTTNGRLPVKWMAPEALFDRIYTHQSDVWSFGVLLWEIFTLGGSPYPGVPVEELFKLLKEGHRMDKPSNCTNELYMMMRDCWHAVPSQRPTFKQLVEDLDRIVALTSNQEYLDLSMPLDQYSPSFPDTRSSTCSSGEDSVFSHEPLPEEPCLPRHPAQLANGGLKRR

[4] = molecular target: Jak2 (UniProt O60674); test: as above
Jak2, sequence (O60674 whole entry, looked up): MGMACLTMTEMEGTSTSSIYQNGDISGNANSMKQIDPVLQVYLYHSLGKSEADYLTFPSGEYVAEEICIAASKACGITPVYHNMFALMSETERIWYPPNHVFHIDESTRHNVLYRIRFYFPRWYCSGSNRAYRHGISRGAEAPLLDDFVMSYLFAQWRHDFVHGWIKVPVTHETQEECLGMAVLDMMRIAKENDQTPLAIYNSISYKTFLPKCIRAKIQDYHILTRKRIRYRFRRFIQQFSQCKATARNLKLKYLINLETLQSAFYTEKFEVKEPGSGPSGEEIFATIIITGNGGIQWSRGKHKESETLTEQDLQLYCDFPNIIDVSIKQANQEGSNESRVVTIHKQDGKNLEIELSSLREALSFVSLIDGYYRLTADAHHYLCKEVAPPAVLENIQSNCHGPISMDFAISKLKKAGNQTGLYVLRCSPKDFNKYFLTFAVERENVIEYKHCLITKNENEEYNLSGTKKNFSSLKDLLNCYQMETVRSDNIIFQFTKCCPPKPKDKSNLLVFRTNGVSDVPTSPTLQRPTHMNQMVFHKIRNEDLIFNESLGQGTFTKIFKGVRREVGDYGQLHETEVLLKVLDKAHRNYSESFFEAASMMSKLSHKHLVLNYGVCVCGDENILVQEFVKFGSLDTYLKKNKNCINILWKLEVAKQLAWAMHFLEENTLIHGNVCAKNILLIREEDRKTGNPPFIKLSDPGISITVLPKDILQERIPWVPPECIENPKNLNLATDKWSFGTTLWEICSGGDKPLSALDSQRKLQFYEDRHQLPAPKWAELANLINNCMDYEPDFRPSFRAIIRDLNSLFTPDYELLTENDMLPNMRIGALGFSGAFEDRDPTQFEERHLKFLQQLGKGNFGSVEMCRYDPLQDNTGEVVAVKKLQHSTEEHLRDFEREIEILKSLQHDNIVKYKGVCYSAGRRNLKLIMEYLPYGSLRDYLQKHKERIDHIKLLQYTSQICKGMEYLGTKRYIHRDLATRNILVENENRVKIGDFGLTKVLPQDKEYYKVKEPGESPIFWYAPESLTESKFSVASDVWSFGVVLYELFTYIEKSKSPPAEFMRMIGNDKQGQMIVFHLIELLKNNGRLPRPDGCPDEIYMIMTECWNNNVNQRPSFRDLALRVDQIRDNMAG

[5] = molecular target: Fes (UniProt P07332); test: as above
Fes, sequence (P07332 whole entry, looked up): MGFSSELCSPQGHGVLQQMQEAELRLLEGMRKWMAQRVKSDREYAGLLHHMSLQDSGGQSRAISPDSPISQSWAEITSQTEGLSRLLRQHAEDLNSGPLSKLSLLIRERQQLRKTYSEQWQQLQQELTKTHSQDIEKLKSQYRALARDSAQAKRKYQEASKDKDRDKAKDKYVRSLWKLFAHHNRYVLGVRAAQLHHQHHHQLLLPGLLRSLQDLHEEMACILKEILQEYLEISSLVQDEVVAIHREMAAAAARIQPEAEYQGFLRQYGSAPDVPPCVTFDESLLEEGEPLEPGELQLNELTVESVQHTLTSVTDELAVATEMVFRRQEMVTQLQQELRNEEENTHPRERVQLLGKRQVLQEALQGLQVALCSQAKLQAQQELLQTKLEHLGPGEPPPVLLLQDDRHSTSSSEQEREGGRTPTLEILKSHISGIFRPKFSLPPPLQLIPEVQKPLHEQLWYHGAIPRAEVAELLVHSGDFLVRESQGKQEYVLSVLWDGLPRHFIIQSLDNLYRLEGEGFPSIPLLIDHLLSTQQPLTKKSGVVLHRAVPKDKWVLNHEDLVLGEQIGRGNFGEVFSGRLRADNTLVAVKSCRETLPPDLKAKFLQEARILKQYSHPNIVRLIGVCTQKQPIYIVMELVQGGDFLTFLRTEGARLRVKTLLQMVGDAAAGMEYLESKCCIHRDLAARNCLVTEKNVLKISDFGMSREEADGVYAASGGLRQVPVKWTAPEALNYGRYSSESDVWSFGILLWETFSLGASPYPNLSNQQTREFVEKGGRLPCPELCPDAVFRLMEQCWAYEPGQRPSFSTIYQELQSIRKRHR

[6] = molecular target: EPHB2 (UniProt P29323); test: as above
[7] = tested on: c-Abl (mouse); test: as above
[8] = molecular target: Hck (UniProt P08631); test: as above
Hck, sequence (P08631 whole entry, looked up): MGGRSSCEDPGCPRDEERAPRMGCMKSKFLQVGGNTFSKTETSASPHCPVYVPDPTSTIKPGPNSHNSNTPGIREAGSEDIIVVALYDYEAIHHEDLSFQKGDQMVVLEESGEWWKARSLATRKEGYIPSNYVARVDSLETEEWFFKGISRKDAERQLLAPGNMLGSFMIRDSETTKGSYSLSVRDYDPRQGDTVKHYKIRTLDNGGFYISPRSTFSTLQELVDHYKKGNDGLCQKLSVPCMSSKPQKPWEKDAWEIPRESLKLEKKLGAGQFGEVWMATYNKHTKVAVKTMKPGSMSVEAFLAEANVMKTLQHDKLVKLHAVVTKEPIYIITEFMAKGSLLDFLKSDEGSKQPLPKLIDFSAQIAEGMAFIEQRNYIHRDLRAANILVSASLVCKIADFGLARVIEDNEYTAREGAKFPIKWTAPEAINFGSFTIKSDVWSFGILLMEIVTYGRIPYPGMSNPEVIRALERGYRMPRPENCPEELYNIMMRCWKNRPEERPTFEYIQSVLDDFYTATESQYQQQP

[9] = tested on: AncSZ; test: as above
[10] = tested on: Fer (mouse); test: as above
[11] = tested on: c-Src; test: as above
[12] = molecular target: FGFR3 (UniProt P22607); test: as above
[13] = molecular target: MERTK (UniProt Q12866); test: as above
[14] = molecular target: c-Src SH2; test: SH2 binding enrichment of the phosphorylated peptide, bacterial display (enrichment ratio); higher = better substrate or ligand; peptides without Tyr show the background
[15] = molecular target: SHP2-C SH2; test: as above
[16] = molecular target: Grb2 SH2 (UniProt P62993); test: as above
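For SH2 binding enrichment of the phosphorylated peptide, bacterial display in this document: peptide library displayed on the E. coli surface as eCPX fusions, selected cells deep-sequenced, score is each peptide's frequency after selection divided by its frequency in the input.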
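For phosphorylation enrichment, bacterial display in this document: 11-residue human phosphosite peptides and single-mutation variants displayed on the E. coli surface, counted by deep sequencing, each peptide's frequency after selection divided by its frequency in the unselected input library; frequency after pTyr selection over input frequency; kinase dosed for 20-30% of maximal phosphorylation in three min.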

EPHB1, sequence (P54762 whole entry, looked up): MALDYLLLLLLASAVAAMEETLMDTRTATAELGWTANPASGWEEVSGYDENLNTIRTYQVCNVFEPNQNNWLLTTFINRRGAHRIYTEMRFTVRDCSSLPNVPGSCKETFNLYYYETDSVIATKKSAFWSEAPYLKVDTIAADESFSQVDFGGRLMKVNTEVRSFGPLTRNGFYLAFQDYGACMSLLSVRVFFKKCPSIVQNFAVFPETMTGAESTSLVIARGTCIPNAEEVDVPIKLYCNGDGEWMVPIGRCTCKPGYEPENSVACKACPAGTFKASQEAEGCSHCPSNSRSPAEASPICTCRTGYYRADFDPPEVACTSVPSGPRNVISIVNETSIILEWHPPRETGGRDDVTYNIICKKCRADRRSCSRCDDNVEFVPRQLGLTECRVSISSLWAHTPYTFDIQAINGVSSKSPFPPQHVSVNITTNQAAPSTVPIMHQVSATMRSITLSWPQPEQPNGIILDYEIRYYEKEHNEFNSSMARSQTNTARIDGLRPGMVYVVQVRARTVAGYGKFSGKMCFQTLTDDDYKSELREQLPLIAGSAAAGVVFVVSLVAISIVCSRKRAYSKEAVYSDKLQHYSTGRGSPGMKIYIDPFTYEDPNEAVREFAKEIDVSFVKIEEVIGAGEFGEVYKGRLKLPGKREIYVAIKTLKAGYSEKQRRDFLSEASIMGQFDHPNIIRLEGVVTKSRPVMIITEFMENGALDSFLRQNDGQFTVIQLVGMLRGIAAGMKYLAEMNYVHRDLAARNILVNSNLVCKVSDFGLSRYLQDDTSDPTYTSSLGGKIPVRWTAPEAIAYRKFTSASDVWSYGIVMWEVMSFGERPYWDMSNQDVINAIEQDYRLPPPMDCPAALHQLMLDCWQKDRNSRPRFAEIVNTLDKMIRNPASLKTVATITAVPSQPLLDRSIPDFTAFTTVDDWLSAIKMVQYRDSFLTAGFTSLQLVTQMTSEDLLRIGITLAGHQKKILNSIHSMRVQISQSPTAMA
Fyn, sequence (P06241 whole entry, looked up): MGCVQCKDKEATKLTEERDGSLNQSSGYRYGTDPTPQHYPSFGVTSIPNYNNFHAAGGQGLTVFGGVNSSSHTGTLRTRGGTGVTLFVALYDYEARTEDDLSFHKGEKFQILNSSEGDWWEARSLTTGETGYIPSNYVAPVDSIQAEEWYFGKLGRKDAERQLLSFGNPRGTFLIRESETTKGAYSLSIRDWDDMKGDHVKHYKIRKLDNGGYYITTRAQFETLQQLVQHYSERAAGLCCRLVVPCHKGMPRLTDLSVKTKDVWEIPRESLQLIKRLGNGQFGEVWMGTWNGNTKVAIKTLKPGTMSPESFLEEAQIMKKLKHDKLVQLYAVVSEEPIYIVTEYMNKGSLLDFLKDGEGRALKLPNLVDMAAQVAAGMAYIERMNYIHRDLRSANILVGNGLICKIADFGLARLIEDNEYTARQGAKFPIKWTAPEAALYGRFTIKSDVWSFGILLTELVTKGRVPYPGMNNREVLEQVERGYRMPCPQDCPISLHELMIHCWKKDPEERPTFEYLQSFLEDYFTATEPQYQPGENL

Row | Sequence | SH2 binding enrichment [14] | SH2 binding enrichment [15] | SH2 binding enrichment [16] | phosphorylation enrichment [1] | phosphorylation enrichment [2] | phosphorylation enrichment [3] | phosphorylation enrichment [4] | phosphorylation enrichment [5] | phosphorylation enrichment [6] | phosphorylation enrichment [7] | phosphorylation enrichment [8] | phosphorylation enrichment [9] | phosphorylation enrichment [10] | phosphorylation enrichment [11] | phosphorylation enrichment [12] | phosphorylation enrichment [13]
1 | PIYEGYGLPHA [ACTA1_Y171_A172G] | 0.739 | 0.52 | 0.79 | 17.5 | 31 | 0.555 | 0.833 | 2.45 | 33.5 | 12.7 | 16.9 | 1.32 | 20.9 | 13.8 | 0.945 | 18.3
2 | PKAWNYELPAT [PROM1_Y34] | 0.851 | 0.631 | 0.996 | 0.822 | 0.761 | 0.582 | 0.894 | 0.972 | 0.997 | 0.735 | 0.597 | 1.23 | 0.72 | 0.414 | 0.574 | 0.59
3 | PKGIGYGQGAG [CSRP3_Y73] | 0.489 | 0.43 | 0.823 | 0.525 | 0.396 | 0.731 | 0.474 | 0.721 | 0.469 | 0.422 | 0.4 | 0.458 | 0.492 | 0.308 | 0.513 | 0.462
4 | PLLLSYYLIKW [NUP160_Y773] | 0.966 | 1.45 | 1.29 | 0.358 | 1.14 | 4.29 | 4.49 | 1.83 | 0.947 | 1.2 | 0.628 | 1.33 | 0.633 | 0.854 | 3.73 | 1.68
5 | PNQRRYVFFFS [PTEN_Y174_S170N_YF] | 1.23 | 1.88 | 1.14 | 0.524 | 0.61 | 0.731 | 1.22 | 1.65 | 0.639 | 1.22 | 0.77 | 1.89 | 0.76 | 0.677 | 1.25 | 0.491
6 | PSPTKYSLSPS [RANBP2_Y785_R784K] | 0.41 | 0.535 | 0.674 | 0.318 | 0.437 | 0.515 | 0.725 | 0.669 | 0.492 | 0.553 | 0.354 | 1.19 | 0.534 | 0.514 | 0.471 | 0.473
7 | PSQRHYVFFFS [PTEN_Y174_R173H_YF] | 0.896 | 1.16 | 1.25 | 0.757 | 0.926 | 0.759 | 1.92 | 2.72 | 0.763 | 1.22 | 0.712 | 2.04 | 0.535 | 0.787 | 1.2 | 0.892
8 | PSQRHYVYYYS [PTEN_Y174_R173H] | 2.03 | 3.14 | 1.2 | 2.84 | 1.72 | 9.38 | 4.48 | 1.63 | 0.953 | 1.28 | 2.13 | 1.71 | 1.65 | 4.77 | 6.63 | 12.6
9 | PSQRPYVYYYS [PTEN_Y174_R173P] | 3.29 | 2.81 | 1.61 | 1.43 | 0.652 | 4.69 | 2.58 | 1.09 | 0.676 | 1 | 1.02 | 1.44 | 0.64 | 2.78 | 3.08 | 7.73
10 | PSQRRYVFFFS [PTEN_Y174_YF] | 0.819 | 1.64 | 1.3 | 0.721 | 0.809 | 0.731 | 1.16 | 1.77 | 0.655 | 1.27 | 0.476 | 1.54 | 0.735 | 0.6 | 1.24 | 0.691
11 | PVDTFYDSTRG [DYNC2H1_Y2231_M2227V_YF] | 0.503 | 0.652 | 0.661 | 0.671 | 0.638 | 0.423 | 0.939 | 0.95 | 0.551 | 1.04 | 0.888 | 0.973 | 0.917 | 0.671 | 0.722 | 0.404
12 | PVKSEYPSIKL [NPC2_Y119] | 0.68 | 0.592 | 0.752 | 0.509 | 0.358 | 0.579 | 0.557 | 0.822 | 0.562 | 0.654 | 0.515 | 0.456 | 0.433 | 0.364 | 0.623 | 0.465

Further lines, with some results ahead:

Row | SH2 binding enrichment [14] | SH2 binding enrichment [15] | SH2 binding enrichment [16] | Sequence | phosphorylation enrichment [1] | phosphorylation enrichment [2] | phosphorylation enrichment [3] | phosphorylation enrichment [4] | phosphorylation enrichment [5] | phosphorylation enrichment [6] | phosphorylation enrichment [7] | phosphorylation enrichment [8] | phosphorylation enrichment [9] | phosphorylation enrichment [10] | phosphorylation enrichment [11] | phosphorylation enrichment [12] | phosphorylation enrichment [13]
13 | 0.695 | 0.777 | 0.829 | PHIKTYMRPSP [TDP1_Y497] | 0.861 | 0.645 | 0.629 | 0.586 | 0.688 | 0.518 | 0.654 | 0.441 | 0.702 | 0.543 | 0.435 | 0.547 | 0.429
14 | 0.457 | 0.614 | 0.78 | PKEEPYQMQEK [SLC5A3_Y565] | 0.784 | 0.964 | 1 | 1.17 | 1.92 | 1.26 | 0.943 | 0.566 | 2.33 | 0.687 | 0.923 | 1.21 | 0.691
15 | 1.05 | 1.06 | 0.909 | PKEQKYSFLQN [GH1_Y68] | 0.692 | 0.465 | 0.719 | 0.688 | 0.862 | 0.951 | 0.625 | 0.577 | 0.972 | 0.627 | 0.554 | 0.978 | 1.18
16 | 2.17 | 1.47 | 0.992 | PKFHSYVSLPF [PLXNA2_Y293] | 0.903 | 1.38 | 1.86 | 1.59 | 1.66 | 1.01 | 0.801 | 1.14 | 1.35 | 0.713 | 0.734 | 1.82 | 1.22
17 | 0.675 | 0.836 | 0.692 | PLDGEYFTRQI [TP53_Y327_L330R] | 0.547 | 0.441 | 0.387 | 0.637 | 1.01 | 0.435 | 1.2 | 0.686 | 1.09 | 0.291 | 0.841 | 0.651 | 0.54
18 | 0.461 | 0.973 | 0.855 | PLFRKYWPNHI [GREB1L_Y1560_YF] | 0.698 | 0.589 | 0.505 | 0.695 | 0.994 | 0.498 | 0.557 | 0.727 | 1.17 | 0.482 | 0.491 | 0.565 | 0.633
19 | 0.529 | 0.743 | 0.841 | PLTKVYVVEGS [ZMPSTE24_Y253] | 0.494 | 0.487 | 0.494 | 0.526 | 0.952 | 0.538 | 0.617 | 0.441 | 0.814 | 0.567 | 0.554 | 0.73 | 0.418
20 | 0.608 | 0.732 | 1.2 | PLYSKYWPNHI [GREB1L_Y1560_R1558S] | 19.9 | 19.1 | 5.11 | 6.37 | 1.27 | 29.7 | 22.6 | 17.4 | 2.47 | 12.3 | 11.8 | 3.06 | 20.1
21 | 0.467 | 0.666 | 0.807 | PNRILYGDFWQ [MYH6_Y717_R721W] | 5.79 | 0.689 | 0.555 | 0.999 | 1.29 | 0.939 | 0.778 | 2.16 | 1.1 | 0.626 | 4.24 | 0.935 | 0.849
22 | 0.466 | 0.695 | 0.827 | PSALGYSPSLH [LLGL2_Y40_R45H] | 0.458 | 0.573 | 0.48 | 0.71 | 0.823 | 0.436 | 0.864 | 0.432 | 0.639 | 0.444 | 0.631 | 0.553 | 0.621
23 | 0.493 | 1.04 | 0.958 | PSALGYSPSLR [LLGL2_Y40] | 0.75 | 0.769 | 0.404 | 0.908 | 0.887 | 0.628 | 0.764 | 0.472 | 0.669 | 0.512 | 0.692 | 0.46 | 0.712
24 | 1.25 | 0.828 | 0.923 | PSQRRNVYYYS [PTEN_Y174_Y174N] | 0.837 | 0.397 | 1.36 | 0.916 | 0.838 | 0.657 | 0.47 | 0.74 | 0.567 | 0.568 | 0.9 | 1.41 | 4.42
25 | 0.335 | 0.499 | 0.671 | PTFKHYANSTQ [SLC12A3_Y70_E68K_YF] | 0.482 | 0.603 | 0.574 | 0.455 | 0.774 | 0.506 | 0.591 | 0.507 | 0.651 | 0.509 | 0.365 | 0.599 | 0.375
26 | 0.683 | 1.01 | 1.23 | PTTKTYFPHFF [HBA1_Y43_D48Y_YF] | 0.723 | 0.547 | 0.824 | 0.569 | 0.584 | 0.716 | 0.453 | 0.672 | 0.681 | 0.864 | 0.471 | 0.696 | 0.607
27 | 0.398 | 0.584 | 0.73 | PVGVLYKVKVY [PTS_Y128] | 0.652 | 1.06 | 0.337 | 1.52 | 1.79 | 0.877 | 0.914 | 0.687 | 1.28 | 0.699 | 0.451 | 1.27 | 0.669
28 | 0.561 | 1.3 | 0.8 | PVQAPYQKVVA [HBB_Y131_A130P] | 0.539 | 0.543 | 0.436 | 0.687 | 0.94 | 0.691 | 0.732 | 0.687 | 0.744 | 0.381 | 0.563 | 0.429 | 0.691
29 | 0.394 | 0.681 | 0.726 | QDLLLYQTHSE [PKHD1_Y255_F253L] | 1.16 | 1.27 | 0.713 | 1.61 | 1.54 | 1.94 | 0.888 | 1.48 | 1.86 | 1.81 | 1.77 | 1.28 | 0.745
